# From paper PMC3573263 (Chemical biology & drug design, 2013)
# [ ]: non-standard residue; d: D form. The star is where a group is joined. Biotin = O=C1N[C@H]2[C@H](CS[C@H]2CCCCC(=O)*)N1; pY = N[C@@H](Cc1ccc(OP(=O)(O)O)cc1)C(=O)O
# Target: YopH PTPase domain (active catalytic domain, residues 164-468), wild type (Yersinia pestis, UniProt O68720 164-468)
# Test: SPR
binder,measurement,value
"Biotin-LVDADE[pY]LIPQQG-OH (SMILES CC[C@H](C)[C@H](NC(=O)[C@H](CC(C)C)NC(=O)[C@H](Cc1ccc(OP(=O)(O)O)cc1)NC(=O)[C@H](CCC(=O)O)NC(=O)[C@H](CC(=O)O)NC(=O)[C@H](C)NC(=O)[C@H](CC(=O)O)NC(=O)[C@@H](NC(=O)[C@H](CC(C)C)NC(=O)CCCC[C@@H]1SC[C@@H]2NC(=O)N[C@@H]21)C(C)C)C(=O)N1CCC[C@H]1C(=O)N[C@@H](CCC(N)=O)C(=O)N[C@@H](CCC(N)=O)C(=O)NCC(=O)O) [biotinylated pTyr-EGFR peptide, biotin-LVDADEpYLIPQQG-COOH]",koff,0.0214 s⁻¹
same,kon,34.9 M⁻¹ s⁻¹
